A protein production outcome set (Wang et al. 2014)

Test: label from the status in PepcDB records

Sequence | protein production
MSSKQHCVKLNDGHLIPALGFGTYKPKEVPKSKSLEAACLALDVGYRHVDTAYAYQVEEEIGQAIQSKIKAGVVKREDLFVTTKLWCTCFRPELVKPALEKSLKKLQLDYVDLYIMHYPVPMKSGDNDFPVNEQGKSLLDTVDFCDTWERLEECKDAGLVKSIGVSNFNHRQLERILNKPGLKYKPVCNQVECHLYLNQRKLLDYCESKDIVLVAYGALGTQRYKEWVDQNSPVLLNDPVLCDVAKKNKRSPALIALRYLIQRGIVPLAQSFKENEMRENLQVFGFQLSPEDMKTLDGLNKNFRYLPAEFLVDHPEYPFVEEY | not failed
IEPEYFGEDAAENILIGWGSLEGAIKEAVNDLNKEGKEKYAALIFGDVWPLPEKLLREKASKAKTLIDVEQNAQGQLADIIREGTGIEVDKKILKYDGRPIMASYIVGRIKE | not failed
MTLTPQELQTYLAALVRQNLQIATMIWGPPGVGKSSVVAQVARQHDLDFVDVRLSQLAPTDLRGLPVPEADAQGSGVSRWYPPEFLPRAGAGILFLDEVNMAPPTMQGMAQQLILDRRVGSYELPDGWFVWAAGNRKEDRASVFDMPAPLANRFLHLTVRPDFDSWRSYALAKGLHEHVIAFLTFRPELLWRLDPQQPAWPSPRSWEMAAQLHRAGLDASSAIGEAAGAEFAAFVRLFEQLPDLGTVLSGAGAGLKLPDEPSVRYAAVVGLAARAADAEEAYRAFTWLADSAGPEWLQLYVATLVSKFQALGQLGELAGLLGRDPRLAELVQGALSLAEGLEHHHHHH | failed
MKIAIVGSGNGAVTAAVDMVDKGHDVRLYCRNESISKFDVALEKGGFDFYNEGEEKFIEFTDISDDMEYVLDGADIVQVIIPSSFIEYYAKVMSKFVTNDHLIFFNIAASMGSIRFMNVLEDRHIDVHPHFAEANTLTYGTRVDFNNAKVDLSLNVRRVFFSTFDRSELNESYEKVSKIYDYLVKEESLLKTNL | failed
MLGGNNDNPVPQVLMNDSQFRYQSNTSLNQLHLLGTMRAGCTIDPVNYFANDNLAPMMRLNSTRGRETENNNIMQRQQKLQISLNYNYNNNNTVVQDEVPKQNLVSTGLRLSYDDDERNSSVTSANGSITTPVYQSLGDNIRLDLNRQNDELDQFIKFRADQMAKGVRDIKQRHVTSFVTALEKDVSKKLQEKDHEIESMNKKNRELVDKIKQVAVEAQNWHYKAKYNESVVNALKVNLQQVMSHGNDNNAVGGGVADHHQMKEGFGDSEIDDEAASYNYLNIPGMPSTGMRCKLCNVKNVSVLLVPCRHLSLCKDCDVFTGVCPVCQSLKTSSVQVFFF | failed
MRENSTKPPQPHISEPADVAESRFISVAIPTFRRPDTIRRAIDSVLHQDFSNWELIVSDDEGPDGQTWAMLTDYARADPRIRIVENRRGRGQVENTNNVMLACRGSWIKLLHDDDWLAPKALGTFAQVAQQYPSAAFITCATNRVEDDRVKLRSARPGKKHVTVCSSQQTLKDLYLVRTTRSFGIIPSSLLVNSIVVQNGCLMRTYKSITAGVDQLFFIDLARHGDMVMIEDGLIFYDATNHSSVTASTTFDDVDRETIDLKHLTWSLIEDKHELPDPETIAGALQVARLRSRFRHQPWGSTIRHALQIFHPSVTKAVNQDIFARVQAVLRRRLRRTNW | failed
MKKNIRLLTHNEIPRVWEIDRTELIERLYVLQQGQLVLSEQRFDMKGWPEGEAEHYTPVLLESAERGAPFWGVFEDDKLVAATSVDPQWRGQDNTLLQLSFLHISHQQRGQGLARILFDYCVEYAKQKGASGLYISSTPSENSVNFYQHMGCRLIDVPDTELYEREPEDIHLVLNFNKED | failed
MAKKNKRSQQKNKCLKPEKDPSTVKRLLEDPPRKKRYLQPLENPPTESYGDDEKMETEEEGEKYLGKNLPASAFIIVAAERHDSDSYSETELEKKICGSVVVAKMNDDKMVSTDTKKKYFQRILSDDDKIVLLQGMVDFQNDKGTISYDDMTGFIDTVKNIISFQANSRQFTTKIRRLKDKFVQKRNKGVDENSLANVEIYEI | failed
MKKFVTLLLCMLPVSLFAQVNDGIRQAMDNYDYETVVTLIEPDCQDSLLLITKAQALKAMNRYPEAIGVLNSLILKDSTNTKVLIDLAECYKLTGNSRRAANCYQKAMNLQPENKFFRLQFIRSLLASEDYEEARTACHGWLERDSLSATGYKYLGQAYEGLQDAASAFLSYNIAYRRDSLDAQTVARIAGIFNNNQQFKDAVDVTEVYRLSDTTNIDVNRQNAKAYCMLKEYGTAVKRYESLKELGDRSFLTLYYLGVSHYGDNWFYGAYDNLKEAYQKNPMDVNVLYYLAKASARTSWKKEGVEYMEEAFRIAVPSDSMMVRLYDGLVECYDYAGDTKKEVEALEKLYIYTKKNSILYKIACLYDWKEDEKNAIRYYRKYMATVSEDQRYALDEDGNPVEDRITLYQQAWKRIKKIKEEGFFRGDIPTKSFPVEKKDTLALRHAK | failed
MITSTNKEAYPNTLIVILGHDEGRSSFEEKEDVTRVTNDKGETIGFNFFNVDKLIDFDKLPNGPVKLSDDELEALNKKLAEVGFDDKLEYGKPTLVYGYVKTCEKHPDSDHLHVTTIEVGDGEEHQIVCGAPNIAQGQKVVVALPGTLMPNGAQIWPGKLRGVDSYGMICSARELGLPHAPQKRGIMVVPDSFEVGAEFEPTKCDELIASGEITLLEHHHHHH | not failed
MSRAKAAPVAGPEVAANRAGRQARIVAILSSAQVRSQNELAALLAAEGIEVTQATLSRDLEELGAVKLRGADGGTGIYVVPEDGSPVRGVSGGTDRMARLLGELLVSTDDSGNLAVLRTPPGAAHYLASAIDRAALPQVVGTIAGDDTILVVAREPTTGAQLAGMFENLR | not failed
FSTFDSKYDRFLRGEEKLTDQEELGRVLISSTQFTNCNTCHEIRGAKGLEDGLFTNHKYFNIGVPANTSVRAVNGSKPDAVDLGLAQNPAVAGDPAQRGKFKVPTLRNVAVTGPYMHNGVFKDLRTVVLFYVKYKSKKPSRQINPETGKTWDAPEVPENIAMTELTSAPALDDKRVDAIVAFLKTLTDRRYEHLLPKEDGQTAAPT | failed
MDGLIPMALKAVKKNLTRRRYERLSYSATTRESYDFASDIEMNVDGRHHRRGWSVGDFSSLSSRETKRNGGVAPEKSLTPPREGQLVRFKSHRLFSCISGQ | failed
MLRMKKFLVVFFLVQSIFVFAQQSKKVESALKTFNSGKIDDGIKKMEAATQEDPSEDNWDLLVQMYKYRYEYAEQQQEDALTLLLLQSLGGSKAKIKKYTSPSVCYRDLIEKSKQAELNSRSTTASMVLRAYLVDYYPDTAVADTAKKEFNSAEKYFSEKDYPNAKLHYQNACKLDPSYYKALIYLGDTHWHMKKMDSAIYYFKQGIQMHGDLLEPRKYLVDALRDSKQYDEAIQESINAITVYPDESMFEKVESLYAKTGRTFDRHWIKRGCNVNTYAGTQLVTTNETWKAYQQARGEIKTYCDTNGVIVKSNSLTKAHYMEVYSWEKMLASNLVVPQELAFAKKMADEGYLDCYVFISLYHYDEYDQFIDFAKNNKERIRTYITKYLIQ | failed
MLEQSLRHYYQLVLVDPILPALRDRITPLSITWLSGIFGLLFIPFVLLDKPYIAISFLLLSGYLDTLDGSLARFQNRASDFGSAMDIVIDRIVEFSAVLALYLFDPQHRATLAILMLGSILLCITSFLVVGIFSNNTTQKSFYYSPGIMERAEAFLFFIFMTLFSSCFNFLAALFCFLVCLTALIRLFEFKKSVQAPS | failed
MTEIYTSVLSYRLLEGKAYSDADTRSLDRMMRSIDEFFSANPGYINFHIYRSYRTDSDVIFWYSSRNPDLMILAKERVQASMRPIAVSSFSSISIYDESPYNAMNKKLEDSLRLPPLRYFVAYPMSKTPDWYLLDFDTRKEIMHEHIKMALNHPDEKGIRSYTTYSFGIGDQEFVVLYEIPDIAAWSRVTEKLREARARKWIIKETPILLGRLVDAGDIAGFLL | not failed
MASLRVACVIPTYNGRKDLERLLDSLATQTASFDTLIVDSSSSDGTLELAQARCANVLRIDSKDFNHGGTRQMMVDVHPDYDVYVYMTQDAYVEDIDAIANILLPFADPKVGAVCGRQLPHKNANLLAQHARLFNYPPTSQIKTLADAGTLGIKTPFMSNSFAAYRGEALRAIGGFPRHVILSEDMYVTAKMLIDGWKVAYEGSAVCRHSHNYSLREEFCRYFDIGVFQSREAWIYETFGGIGGEGMRYVKSELKFLGPRRLLWWPMSFVRNALKLLAYKLSKQEKRLPRGLKKKLGMYKRYWDSPYA | failed
MACHELSALRIAIGELLEKEAHDLLHEREELAPVLGQRPELKRLAEAKTLPALEEALREALLHLEERAAQEPEEPYWRGLLLAVEAMEGRLKALRAEAEALYQDLDALHGRLHRLFPRRR | not failed
